The results in this text go back to publication PMC3250504, “Identification and Characterization of a Mef2 Transcriptional Activator in Schistosome Parasites”.

The target in data set [1] is T1, MBP-SmMef2 (Schistosoma mansoni, UniProt G8JE45 1-730).
T1 sequence: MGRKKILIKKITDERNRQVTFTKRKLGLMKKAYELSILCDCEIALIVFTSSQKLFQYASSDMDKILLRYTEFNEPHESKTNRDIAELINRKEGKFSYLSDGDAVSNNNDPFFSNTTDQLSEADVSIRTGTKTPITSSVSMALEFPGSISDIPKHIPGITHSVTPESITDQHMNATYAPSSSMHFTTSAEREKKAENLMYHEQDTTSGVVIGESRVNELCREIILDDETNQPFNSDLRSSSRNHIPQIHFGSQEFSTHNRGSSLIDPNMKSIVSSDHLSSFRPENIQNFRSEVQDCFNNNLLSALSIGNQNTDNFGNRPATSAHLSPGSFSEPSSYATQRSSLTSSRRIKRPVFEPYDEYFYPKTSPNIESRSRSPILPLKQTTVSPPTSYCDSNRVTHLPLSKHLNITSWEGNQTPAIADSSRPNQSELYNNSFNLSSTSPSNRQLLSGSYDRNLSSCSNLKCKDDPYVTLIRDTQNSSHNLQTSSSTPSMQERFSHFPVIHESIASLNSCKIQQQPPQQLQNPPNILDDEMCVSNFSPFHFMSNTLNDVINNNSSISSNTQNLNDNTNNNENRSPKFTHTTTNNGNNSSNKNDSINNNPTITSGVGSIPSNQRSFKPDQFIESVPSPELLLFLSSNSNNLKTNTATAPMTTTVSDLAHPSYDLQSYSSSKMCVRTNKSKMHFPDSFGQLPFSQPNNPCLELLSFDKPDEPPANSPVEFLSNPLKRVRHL
Put plainly: EMSA; 5 mM MgCl2, poly(dI-dC); LightShift kit 1x binding buffer, 2.5% glycerol, 5 mM MgCl2, 50 ng/uL poly(dI-dC), 0.05% NP-40, 180 fmol hot dsDNA, 1.4 ug protein, 20 min room temperature; 5%. The following applies: protein: recombinant; tags: N-terminal MBP (pMAL-c5x); chain copies: 2; label: 5' biotin on forward strand (hot); blunt. Background: In EMSA bound probe runs differently from free probe, usually more slowly.

Data set [2] has as its target T1, MBP-SmMef2. Description: competition; 200x cold vs labeled AT12 or AT13; LightShift kit 1x binding buffer, 2.5% glycerol, 5 mM MgCl2, 50 ng/uL poly(dI-dC), 0.05% NP-40, 180 fmol hot dsDNA, 1.4 ug protein, 20 min room temperature; 5%. The following applies: protein: recombinant; tags: N-terminal MBP (pMAL-c5x); chain copies: 2; blunt.

B1: AT12 (common Mef2 consensus) (dsDNA)
DNA 1: GCTGAAGGATCTAAAAATAGGCGGATCGGC
DNA 2: GCCGATCCGCCTATTTTTAGATCCTTCAGC
For the molecule B1, the binding result with MBP-SmMef2 [1] was “binds”.

B2: AT14 (Ndt80 MSE negative control) (dsDNA)
DNA 1: GCTGAAGGATGTCACAAAATGCGGATCGGC
DNA 2: GCCGATCCGCATTTTGTGACATCCTTCAGC
In the case of B2, the binding result with MBP-SmMef2 [2] was “no binding”.

B3: AT13 (M. polymorpha Mef2 site) (dsDNA)
DNA 1: GCTGAAGGATCTATATATAGGCGGATCGGC
DNA 2: GCCGATCCGCCTATATATAGATCCTTCAGC
B3: in the data set with MBP-SmMef2 [1], the binding result is reported as “binds”.

B4: AT11 (Drosophila Actin57B Mef2 site) (dsDNA)
DNA 1: GCTGAAGGATCTATTTTTAGGCGGATCGGC
DNA 2: GCCGATCCGCCTAAAAATAGATCCTTCAGC
In the case of B4, the binding result with MBP-SmMef2 [1] was “binds”.
